Test results: paper doi:10.1101/2022.08.19.504503

Molecular target: Cdh23 with entire EC domains (Cdh23 EC 1-27) (UniProt Q99PF4)
Assay: cross-linking

stoichiometry N: 2
Substance: Cdh23 with entire EC domains (Cdh23 EC 1-27) (from UniProt Q99PF4 24-3354) (domain or fragment)
